For one substance, Kd results are on record in patent EP1378570B1.

pKd: −log10 of the molar value.

The target of this test is murine Flk-1 receptor tyrosine kinase (fetal liver kinase 1), full-length, transiently expressed in COS-1 cells from pCMV-Flk-1 (mouse) (UniProt P35918). In words: competition of unlabeled VEGF (0 to 7 x 10^-9) with 10 pM 125I-VEGF on COS-1 cells expressing Flk-1; analysis by Munson and Rodbard.
Chain of UniProt P35918 (P35918 other isoform, or with tags, fused parts or gaps limits assumed): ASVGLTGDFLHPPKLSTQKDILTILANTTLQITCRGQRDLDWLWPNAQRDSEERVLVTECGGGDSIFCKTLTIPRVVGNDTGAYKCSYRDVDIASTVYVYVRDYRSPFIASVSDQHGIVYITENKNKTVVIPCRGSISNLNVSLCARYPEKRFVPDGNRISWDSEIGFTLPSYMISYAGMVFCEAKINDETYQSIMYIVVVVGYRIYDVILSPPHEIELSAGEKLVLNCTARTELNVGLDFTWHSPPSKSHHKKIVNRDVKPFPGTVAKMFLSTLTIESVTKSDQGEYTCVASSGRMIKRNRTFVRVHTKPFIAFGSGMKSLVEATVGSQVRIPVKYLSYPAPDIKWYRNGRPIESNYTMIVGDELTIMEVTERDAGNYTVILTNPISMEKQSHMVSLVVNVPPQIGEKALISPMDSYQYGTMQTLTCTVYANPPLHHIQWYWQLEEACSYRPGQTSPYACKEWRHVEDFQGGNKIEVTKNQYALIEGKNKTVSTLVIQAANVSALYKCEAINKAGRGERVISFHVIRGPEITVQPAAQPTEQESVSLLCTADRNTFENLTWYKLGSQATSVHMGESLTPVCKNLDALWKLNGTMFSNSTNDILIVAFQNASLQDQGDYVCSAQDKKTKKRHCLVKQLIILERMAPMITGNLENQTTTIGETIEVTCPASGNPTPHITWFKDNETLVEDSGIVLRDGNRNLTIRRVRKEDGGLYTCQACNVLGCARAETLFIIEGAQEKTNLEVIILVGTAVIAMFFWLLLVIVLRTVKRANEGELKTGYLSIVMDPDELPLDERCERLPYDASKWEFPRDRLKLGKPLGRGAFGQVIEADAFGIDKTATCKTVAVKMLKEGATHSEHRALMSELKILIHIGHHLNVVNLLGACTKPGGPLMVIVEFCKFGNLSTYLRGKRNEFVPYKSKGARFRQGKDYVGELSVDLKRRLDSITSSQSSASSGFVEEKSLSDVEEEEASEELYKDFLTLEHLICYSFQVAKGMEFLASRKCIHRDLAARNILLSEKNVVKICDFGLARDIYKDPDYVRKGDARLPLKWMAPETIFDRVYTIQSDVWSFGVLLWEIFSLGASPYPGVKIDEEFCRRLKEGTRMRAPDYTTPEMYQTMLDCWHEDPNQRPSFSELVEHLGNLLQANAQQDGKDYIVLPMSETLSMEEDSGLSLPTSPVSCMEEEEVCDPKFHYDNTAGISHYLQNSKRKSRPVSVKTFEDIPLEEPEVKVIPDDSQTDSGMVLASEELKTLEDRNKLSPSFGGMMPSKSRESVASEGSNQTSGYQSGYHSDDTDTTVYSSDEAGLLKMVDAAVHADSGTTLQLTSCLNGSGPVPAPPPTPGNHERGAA

Broadly, the pKd is the Kd on a negative log10 scale, so that one unit is a factor of ten. With “unlabeled VEGF (164 amino acid form), partially purified from conditioned media of COS-1 cells transiently expressing VEGF (from UniProt Q00731 1-392) (ligand)”, the pKd was 10.00.
